According to US20200171068A1, “COMPOSITIONS COMPRISING APTAMERS AND NUCLEIC ACID PAYLOADS AND METHODS OF USING THE SAME” (Children's National Medical Center, priority 2017, published 2020):
Entries after “also recorded” stand apart in the source; their conditions may differ. [C3] = C3 (propyl) spacer linking the 3' end of the DNA aptamer to the passenger RNA

Columns and labels:
hematopoiesis = assay: Carboplatin-induced myelosuppression in mice; assay type: in vivo, mouse
Procedure: (§1) For xenograft models, the NSG mice and BALB/c mice were subcutaneously injected with 2×10^6 viable MDA-MB-231 cells and TUBO cells in their right hind limbs, respectively. After the tumor grew to 1 cm in diameter, mice were randomly divided into the groups for each treatment. For no treatment control, 100 μl saline with 1% mouse serum was intravenously injected through tail vein. For treatment groups, 670 pmol/20 g chimeras and/or 5(0 mg/kg 5-fluorouracil (5-FU), or 120 mg/kg carboplatin were also intravenously injected. Tumor sizes were measured in two dimensions every 3 days. Tumor volume (V) was calculated using the following formula: V=(½) S^2×L (S. the shortest dimension; L, the longest dimension). Animals were euthanized when the tumor size was over 2 cm diameters, tumor ulcerated, or became necrotic. For chimera treatment in normal mice, C57BL/6 mice were treated with miR-26a chimera (670 pmol/20 g) everyday for 3 days by intravenous injection. At day 2, 150 mg/kg 5-FU and/or 120 mg/kg carboplatin was injected together with the chimera. Peripheral bloods were collected at day 5 and day 10 after the 5-FU treatment. Complete blood counts were measured by Hemavet 950FS (Drew Scientific, Miami Lakes, Fla., USA).

MDA-MB-231 cells [1] = assay: miR-26a delivery into MDA-MB-231 cells, qPCR; assay type: cell-based, human; conditions: two days after incubation, compared to control chimera
Excerpt: Total RNAs from cell lines and mouse tissues were extracted by RNeasy Plus Mini kit (Qiagen, Valencia, Calif., USA). miR-26a levels were quantified by Taqman microRNA assay (assay ID; 000405) that covered both has-miR-26a-5p and mmu-miR-26a-5p (Thermo Fisher Scientific) according to manufacturer's protocol. U6 snRNA (Taqman microRNA assay, assay ID; 001973) was used as endogenous control. For qPCR of other genes, cDNAs were synthesized from the purified total RNA with qScript cDNA supermix (Quanta Bio, Gaithersburg, Md., USA). Real-time PCR was performed with Power SYBR Green PCR master mix (Thermo Fisher Scientific) on 7500 Real Time PCR system (Thermo Fisher Scientific). Sequence primers for mouse Bak were […] (forward) (SEQ ID NO: 11) and […] (reverse) (SEQ ID NO:12). For mouse Ezh2, […] (forward) (SEQ ID NO:13) and […] (reverse) (SEQ ID NO:14). For mouse Actb, […] (forward) (SEQ ID NO:15) and […] (reverse) (SEQ ID NO:16) were used as endogenous control.

EZH2 protein = assay: EZH2 immunoblot in chimera-treated MDA-MB-231 cells; assay type: cell-based, human; conditions: 167 nM chimeras for 2 days
Procedure: The cell lysate from MDA-MB-231 cells treated with 167 nM chimeras for 2 days were fractionated by SDS-PAGE and then transferred to PVDF membrane (EMD Millipore, Billerica, Mass., USA). Following blocking with 5% FBS in tris-buffered saline, the membrane was incubated with primary antibody against EZH2 (D2C2) and Histone H3 (Cat #9715) (Cell Signaling Technologies, Danvers, Mass., USA) overnight at 4° C. and then incubated with horseradish peroxidase-conjugated anti-mouse and rabbit IgGs (Thermo Fisher Scientific) for 1 hr. respectively. The antigen-antibody immunoreactivity was detected in ChemiDoc Touch Imaging System (Bio-Rad Hercules, Calif., USA) using SuperSignal West Pico Chemiluminescent Substrate (Thermo Fisher Scientific).

[2] = tested on: MDA-MB-231 xenograft tumors; assay: MDA-MB-231 xenograft in NSG mice; assay type: in vivo, mouse
Excerpt: Xenograft model were generated 8-weeks old female immune-deficient NOD-scid IL2Rgamma^null (NSG™, Jackson Laboratories, Bar Harbar, Me., USA) using human breast cancer cell line. Syngeneic TUBO tumors were established in 8-weeks old female BALB/c mice (from Charles River Animal Facility, Frederick, Md., USA). These tumor-bearing mice were randomly assigned to each treatment group. Eight-week old male C57BL/6 mice and C57BL/6 ly5.2 mice (from Charles River Animal Facility, Frederick, Md., USA) were used for bone marrow transplantation assay. The mouse groups assigned for each treatment were not blinded. No statistical methods were used to pre-determined sample size for the analysis of mouse experiments. All the mice were maintained in the Research Animal Facility at Children's National Institute, Children's National Medical Center. The committee on the Use and Care of Animal at Children's National Institute approved all procedures involving experimental animals.
as §1

MDA-MB-231 cells [3] = assay: Growth and apoptosis of MDA-MB-231 cells cultured with chimera; assay type: cell-based, human; conditions: 3 days of culture
Excerpt: FIG. 1A-FIG. 1H show identification and validation of KIT-targeting miR-26a chimera that inhibits human breast cancer growth in vitro and in vivo. FIG. 1A is a graph showing the overall survival of basal-like breast cancer patients with higher or lower expression of miR-26a-2 based on the expression scores comparing to the mean value in TCGA cohort. FIG. 1B is a graph showing the binding of anti-KIT antibody and KIT DNA aptamer to MDA-MB-231 cell line. Other cell targeting aptamer is specific for Ramos cells. FIG. 1C depicts the secondary structure of KIT aptamer-miR-26a chimera. KIT DNA aptamer was linked with C3 linker to RNA passenger sequence that was complimentary binds to miR-26a mimic sequence. Another RNA passenger sequence binding to the 3′ of miR-26 mimic was conjugated with TEG-cholesterol. FIG. 1D is a graph showing specific miR-26a delivery by the miR-26a chimera. […] After 3 days of culture with miR-26a chimera or control chimera, MDA-MB-231 cell numbers (left) were counted using hemocytometer and Annexin V positive cells (%) (right) was determined by flow cytometry. […]
For aptamer binding assay, streptavidin-APC (Cat #554067) […] Bioscience, San Jose, Calif., USA) was used for detecting the biotin-conjugated aptamers by flow cytometry. […] Flow cytometry analysis was performed on FACS Canto II (BD Bioscience) and the data were analyzed with FlowJo (FLOWJO, Ashland, Oreg., USA). […]

Molecule | red blood cells after carboplatin (hematopoiesis; day 10) | hematopoiesis: WBC and platelet counts after carboplatin (hematopoiesis; single high dose of carboplatin, day 5, compared with vehicle) | miR-26a expression in the MDA-MB-231 cells (MDA-MB-231 cells [1]) | EZH2 protein expression (EZH2 protein) | tumor growth (tumor volume) ([2]; 5 or 10 daily intravenous injections, 670 pmol/20 g) | survival ([2]; 5 or 10 daily intravenous injections, 670 pmol/20 g, log-rank test vs control chimera) | miR-26a in KIT+ tumor cells ([2]; NSG mice, MDA-MB-231 tumor, 3 days after intravenous injection 670 pmol/20 g, qPCR) | miR-26a in KIT tumor cells (KIT-negative population) ([2]; NSG mice, MDA-MB-231 tumor, 3 days after single injection, qPCR) | Annexin V positive cells (apoptosis) of MDA-MB-231 cells (MDA-MB-231 cells [3]; flow cytometry) | MDA-MB-231 cell numbers (growth) (MDA-MB-231 cells [3]; hemocytometer)
N.N.O=C([O-])C1(C(=O)[O-])CCC1.[Pt+2] [carboplatin, reference compound] | reduction of red blood cells was also observed | significant defects in hematopoiesis; also recorded: significantly reduced WBC and platelet counts |  |  |  |  |  |  |  | 
KIT-targeting miR-26a chimera: anti-human KIT DNA aptamer-C3-passenger RNA, passenger RNA-TEG-cholesterol and miR-26a-5p guide strand annealed (SEQ ID NO:4/5, 8, 9) (nucleic acid, chain 1: DNA, 3' [C3], backbone not given here; chain 2: chemistry not given here; chain 3: chemistry not given here; guide: chemistry not given here; DNA aptamer joined by C3 spacer to passenger RNA, annealed three-part chimera) chain 1: GAGGCATACCAGCTTATTCAAGGGGCCGGGGCAAGGGGGGGGTACCGTGGTAGGACATAGTAAGTGCAATCTGCGAA chain 2: CCUAUUCUGG chain 3: GUUACUUGCACG guide: UUCAAGUAAUCCAGGAUAGGCU |  |  | significant increase; also recorded: successfully delivered miR-26a | significant suppression; also recorded: significantly suppressed | significantly suppressed the tumor growth | extended their survival | Significant increase; also recorded: significant elevation | No increase | induced apoptosis; also recorded: induction of apoptosis | suppressed the growth; also recorded: inhibited cell growth
